Experimental findings from patent publication US20200369765A1 (INNATE PHARMA, published 2020) are described below.

One test deals with T1, Human Siglec-3 (human, UniProt P20138 18-364).
T1 construct: Expressed on transfected CHO cells; also called HuSiglec-3; CD33
The test is described as follows: flow cytometry, CHO transfectants.

The target in the next test is T2, Human Siglec-5 (human, UniProt O15389 17-551).
T2 construct: Expressed on transfected CHO cells; also called HuSiglec-5
T2 sequence: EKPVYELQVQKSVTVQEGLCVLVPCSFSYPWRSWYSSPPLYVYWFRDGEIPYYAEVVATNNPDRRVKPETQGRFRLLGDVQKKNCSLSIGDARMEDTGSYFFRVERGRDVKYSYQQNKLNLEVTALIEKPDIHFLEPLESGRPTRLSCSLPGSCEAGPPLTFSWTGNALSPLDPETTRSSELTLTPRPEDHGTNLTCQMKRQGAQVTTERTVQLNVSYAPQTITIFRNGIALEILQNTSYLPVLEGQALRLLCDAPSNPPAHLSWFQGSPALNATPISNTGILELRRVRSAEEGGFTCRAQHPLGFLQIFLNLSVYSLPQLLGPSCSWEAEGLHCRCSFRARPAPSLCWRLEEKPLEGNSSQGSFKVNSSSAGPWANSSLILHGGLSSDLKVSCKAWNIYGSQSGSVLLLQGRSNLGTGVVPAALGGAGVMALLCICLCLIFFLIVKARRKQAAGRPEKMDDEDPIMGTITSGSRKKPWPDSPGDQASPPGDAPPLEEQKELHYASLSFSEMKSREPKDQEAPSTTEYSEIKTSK
The test is described as follows: flow cytometry, CHO transfectants.

Another test has as its target T3, Human Siglec-6 (human, UniProt O43699 27-453).
T3 construct: Expressed on transfected CHO cells; also called HuSiglec-6
The test is described as follows: flow cytometry, CHO transfectants.

The target of another test is T4, Human Siglec-8 (human, UniProt Q9NYZ4 17-499).
T4 construct: Expressed on transfected CHO cells; also called HuSiglec-8
T4 sequence (Q9NYZ4 17-499): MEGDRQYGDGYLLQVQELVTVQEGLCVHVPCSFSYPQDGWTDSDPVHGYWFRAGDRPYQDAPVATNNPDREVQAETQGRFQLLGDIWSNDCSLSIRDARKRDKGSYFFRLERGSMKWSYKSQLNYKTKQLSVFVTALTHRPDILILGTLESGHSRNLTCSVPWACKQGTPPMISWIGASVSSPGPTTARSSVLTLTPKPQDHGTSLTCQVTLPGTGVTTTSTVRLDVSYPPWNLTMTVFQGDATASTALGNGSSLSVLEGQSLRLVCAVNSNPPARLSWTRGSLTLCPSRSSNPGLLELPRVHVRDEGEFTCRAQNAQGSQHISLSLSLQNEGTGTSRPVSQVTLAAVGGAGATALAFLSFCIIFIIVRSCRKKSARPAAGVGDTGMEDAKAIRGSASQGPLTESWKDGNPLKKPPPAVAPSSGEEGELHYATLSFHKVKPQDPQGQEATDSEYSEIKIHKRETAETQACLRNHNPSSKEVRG
Put plainly: flow cytometry, CHO transfectants. In general terms: A flow cytometer gives signals particle by particle.

For a further test, the target named is T5, Human Siglec-10 (human, UniProt Q96LC7 17-697).
T5 construct: Expressed on transfected CHO cells; also called HuSiglec-10
T5 sequence: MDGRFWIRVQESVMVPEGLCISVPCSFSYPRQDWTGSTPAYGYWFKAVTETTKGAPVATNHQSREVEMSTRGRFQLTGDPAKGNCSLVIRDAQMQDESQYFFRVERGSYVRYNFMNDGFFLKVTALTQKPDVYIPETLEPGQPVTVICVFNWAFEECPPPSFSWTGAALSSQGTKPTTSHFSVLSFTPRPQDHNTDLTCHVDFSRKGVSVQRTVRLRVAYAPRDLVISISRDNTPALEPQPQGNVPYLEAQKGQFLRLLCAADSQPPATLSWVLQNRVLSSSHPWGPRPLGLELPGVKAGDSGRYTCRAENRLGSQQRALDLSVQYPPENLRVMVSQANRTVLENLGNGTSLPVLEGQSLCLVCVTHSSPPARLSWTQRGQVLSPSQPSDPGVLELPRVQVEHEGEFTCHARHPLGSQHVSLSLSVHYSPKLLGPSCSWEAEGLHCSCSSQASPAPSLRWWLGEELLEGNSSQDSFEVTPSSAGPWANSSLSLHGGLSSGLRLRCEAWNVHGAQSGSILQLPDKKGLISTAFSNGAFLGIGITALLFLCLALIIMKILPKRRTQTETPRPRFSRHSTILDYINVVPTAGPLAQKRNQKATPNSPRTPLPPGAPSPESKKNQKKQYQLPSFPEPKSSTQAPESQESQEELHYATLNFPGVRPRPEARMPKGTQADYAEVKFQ
Put plainly: flow cytometry, CHO transfectants.

The next test addresses T6, Human Siglec-11 (human, UniProt Q96RL6 29-698).
T6 construct: Expressed on transfected CHO cells; also called HuSiglec-11
T6 sequence: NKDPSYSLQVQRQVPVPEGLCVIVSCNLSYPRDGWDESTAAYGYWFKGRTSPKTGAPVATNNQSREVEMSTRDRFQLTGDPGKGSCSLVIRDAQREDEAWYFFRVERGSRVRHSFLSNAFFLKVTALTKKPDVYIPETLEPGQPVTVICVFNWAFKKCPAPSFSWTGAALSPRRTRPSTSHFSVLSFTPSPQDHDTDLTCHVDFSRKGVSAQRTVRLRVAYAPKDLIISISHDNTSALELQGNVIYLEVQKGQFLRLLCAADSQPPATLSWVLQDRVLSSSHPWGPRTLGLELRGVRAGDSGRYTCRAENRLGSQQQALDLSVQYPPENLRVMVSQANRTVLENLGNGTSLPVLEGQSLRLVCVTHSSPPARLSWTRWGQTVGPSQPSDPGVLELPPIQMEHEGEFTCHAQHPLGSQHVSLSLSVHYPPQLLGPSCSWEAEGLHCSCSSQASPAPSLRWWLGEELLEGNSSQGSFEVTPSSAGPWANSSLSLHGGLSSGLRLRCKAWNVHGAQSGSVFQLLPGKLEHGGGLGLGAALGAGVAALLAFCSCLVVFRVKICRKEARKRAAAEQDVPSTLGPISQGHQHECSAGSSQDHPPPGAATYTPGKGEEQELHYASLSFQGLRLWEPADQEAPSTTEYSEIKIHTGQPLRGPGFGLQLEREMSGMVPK
The test is described as follows: flow cytometry, CHO transfectants.

The target of a further test is T7, Human Siglec-12 (human, UniProt Q96PQ1 19-595).
T7 construct: Expressed on transfected CHO cells; also called HuSiglec-12
T7 sequence (Q96PQ1 19-595): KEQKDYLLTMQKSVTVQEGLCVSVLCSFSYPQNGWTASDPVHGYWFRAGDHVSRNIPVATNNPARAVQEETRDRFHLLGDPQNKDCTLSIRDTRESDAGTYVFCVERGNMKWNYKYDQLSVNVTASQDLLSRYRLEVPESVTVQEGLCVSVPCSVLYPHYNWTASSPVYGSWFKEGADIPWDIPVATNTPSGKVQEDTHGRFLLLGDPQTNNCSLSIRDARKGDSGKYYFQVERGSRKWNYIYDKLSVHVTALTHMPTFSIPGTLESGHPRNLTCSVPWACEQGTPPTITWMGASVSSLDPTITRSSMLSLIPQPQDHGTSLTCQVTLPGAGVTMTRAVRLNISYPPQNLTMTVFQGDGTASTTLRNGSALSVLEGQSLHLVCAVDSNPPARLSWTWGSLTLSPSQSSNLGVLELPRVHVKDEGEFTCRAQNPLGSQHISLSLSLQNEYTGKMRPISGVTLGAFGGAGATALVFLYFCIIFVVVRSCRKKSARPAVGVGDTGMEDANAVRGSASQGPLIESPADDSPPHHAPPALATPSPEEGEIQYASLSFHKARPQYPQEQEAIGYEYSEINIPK
The test is described as follows: flow cytometry, CHO transfectants.

For the next test, the target named is T8, Human Siglec-9 mutant M2 (human, UniProt Q9Y336 18-463).
T8 construct: Expressed on HEK293T cells; also called Mutant 2
T8 sequence (Q9Y336 other isoform, or with tags, fused parts or gaps mutant): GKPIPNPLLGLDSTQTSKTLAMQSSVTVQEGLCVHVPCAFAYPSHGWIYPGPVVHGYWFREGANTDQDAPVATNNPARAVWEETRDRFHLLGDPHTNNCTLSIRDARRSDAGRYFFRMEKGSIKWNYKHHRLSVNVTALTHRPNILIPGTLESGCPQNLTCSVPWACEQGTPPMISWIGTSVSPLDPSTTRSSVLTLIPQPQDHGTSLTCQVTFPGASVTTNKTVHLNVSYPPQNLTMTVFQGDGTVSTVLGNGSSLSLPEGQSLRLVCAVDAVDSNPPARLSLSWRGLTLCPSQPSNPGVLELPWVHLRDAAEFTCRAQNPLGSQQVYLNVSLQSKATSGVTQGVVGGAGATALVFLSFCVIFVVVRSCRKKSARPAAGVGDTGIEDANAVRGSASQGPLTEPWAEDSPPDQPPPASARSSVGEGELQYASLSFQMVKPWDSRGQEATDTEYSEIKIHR
Put plainly: flow cytometry, HEK293T transfectants.

The next test deals with T9, Human Siglec-9 mutant M6 (human, UniProt Q9Y336 18-463).
T9 construct: Expressed on HEK293T cells; also called Mutant 6
T9 sequence (Q9Y336 other isoform, or with tags, fused parts or gaps mutant): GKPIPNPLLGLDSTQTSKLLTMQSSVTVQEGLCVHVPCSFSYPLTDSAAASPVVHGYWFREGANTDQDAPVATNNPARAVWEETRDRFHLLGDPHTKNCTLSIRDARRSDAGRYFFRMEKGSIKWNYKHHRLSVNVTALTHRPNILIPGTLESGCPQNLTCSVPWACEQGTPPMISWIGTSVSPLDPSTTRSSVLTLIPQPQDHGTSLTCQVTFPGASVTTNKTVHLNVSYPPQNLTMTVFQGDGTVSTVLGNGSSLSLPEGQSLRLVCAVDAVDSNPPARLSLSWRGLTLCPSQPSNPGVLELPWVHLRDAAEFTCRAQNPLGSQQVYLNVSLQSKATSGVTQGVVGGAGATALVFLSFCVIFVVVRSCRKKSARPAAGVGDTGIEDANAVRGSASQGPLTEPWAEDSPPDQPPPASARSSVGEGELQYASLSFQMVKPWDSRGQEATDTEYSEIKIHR
The test is described as follows: flow cytometry, HEK293T transfectants.

A further test deals with T10, Human Siglec-9 mutant M7 (human, UniProt Q9Y336 18-463).
T10 construct: Expressed on HEK293T cells; also called Mutant 7
T10 sequence (Q9Y336 other isoform, or with tags, fused parts or gaps mutant): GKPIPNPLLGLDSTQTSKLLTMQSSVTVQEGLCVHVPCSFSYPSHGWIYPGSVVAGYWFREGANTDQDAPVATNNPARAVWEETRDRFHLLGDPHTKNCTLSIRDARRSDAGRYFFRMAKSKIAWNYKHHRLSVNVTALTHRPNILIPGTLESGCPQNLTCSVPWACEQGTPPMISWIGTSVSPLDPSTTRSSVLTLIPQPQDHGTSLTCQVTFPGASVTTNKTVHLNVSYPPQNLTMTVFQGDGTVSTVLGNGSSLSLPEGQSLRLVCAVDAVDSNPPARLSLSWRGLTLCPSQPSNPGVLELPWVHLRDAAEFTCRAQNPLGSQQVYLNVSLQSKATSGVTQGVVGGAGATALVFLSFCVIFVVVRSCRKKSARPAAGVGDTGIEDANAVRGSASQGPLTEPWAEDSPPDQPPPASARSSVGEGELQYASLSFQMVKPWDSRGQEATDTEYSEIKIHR
Put plainly: flow cytometry, HEK293T transfectants.

The next test addresses T11, Human Siglec-9 mutant M8 (human, UniProt Q9Y336 18-463).
T11 construct: Expressed on HEK293T cells; also called Mutant 8
The test is described as follows: flow cytometry, HEK293T transfectants.

Test [1] concerns the target T12, Human Siglec-9 mutant M14 (human, UniProt Q9Y336 18-463).
T12 construct: Expressed on HEK293T cells; also called Mutant 14
The test is described as follows: flow cytometry, HEK293T transfectants.

The target in test [2] is T13, Human Siglec-9 mutant M15 (human, UniProt Q9Y336 18-463).
T13 construct: Expressed on HEK293T cells; also called Mutant 15
T13 sequence (Q9Y336 other isoform, or with tags, fused parts or gaps mutant): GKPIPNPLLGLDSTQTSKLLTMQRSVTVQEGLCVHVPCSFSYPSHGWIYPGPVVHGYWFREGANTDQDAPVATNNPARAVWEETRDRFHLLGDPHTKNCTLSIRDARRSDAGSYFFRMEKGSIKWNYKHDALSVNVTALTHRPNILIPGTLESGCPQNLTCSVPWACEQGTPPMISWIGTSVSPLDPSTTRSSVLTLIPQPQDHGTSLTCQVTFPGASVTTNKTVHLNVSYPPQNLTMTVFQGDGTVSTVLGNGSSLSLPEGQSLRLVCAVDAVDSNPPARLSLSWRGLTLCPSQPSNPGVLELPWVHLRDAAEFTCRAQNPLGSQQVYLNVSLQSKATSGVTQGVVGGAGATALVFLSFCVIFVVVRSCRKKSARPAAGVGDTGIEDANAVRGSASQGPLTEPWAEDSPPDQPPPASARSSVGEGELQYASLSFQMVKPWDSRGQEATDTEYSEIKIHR
The test is described as follows: flow cytometry, HEK293T transfectants.

T3 sequence (O43699 other isoform, or with tags, fused parts or gaps): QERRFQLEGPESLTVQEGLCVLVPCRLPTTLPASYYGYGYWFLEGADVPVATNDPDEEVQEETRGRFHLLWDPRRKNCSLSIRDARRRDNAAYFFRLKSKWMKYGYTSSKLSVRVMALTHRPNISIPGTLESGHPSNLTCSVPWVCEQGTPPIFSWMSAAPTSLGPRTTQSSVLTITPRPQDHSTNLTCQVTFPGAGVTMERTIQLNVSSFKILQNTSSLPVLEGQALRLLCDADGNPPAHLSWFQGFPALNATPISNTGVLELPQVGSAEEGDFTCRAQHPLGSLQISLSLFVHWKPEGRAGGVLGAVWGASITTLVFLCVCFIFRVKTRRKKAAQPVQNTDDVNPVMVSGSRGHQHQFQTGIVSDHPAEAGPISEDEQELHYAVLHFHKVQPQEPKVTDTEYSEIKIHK
T11 sequence (Q9Y336 other isoform, or with tags, fused parts or gaps mutant): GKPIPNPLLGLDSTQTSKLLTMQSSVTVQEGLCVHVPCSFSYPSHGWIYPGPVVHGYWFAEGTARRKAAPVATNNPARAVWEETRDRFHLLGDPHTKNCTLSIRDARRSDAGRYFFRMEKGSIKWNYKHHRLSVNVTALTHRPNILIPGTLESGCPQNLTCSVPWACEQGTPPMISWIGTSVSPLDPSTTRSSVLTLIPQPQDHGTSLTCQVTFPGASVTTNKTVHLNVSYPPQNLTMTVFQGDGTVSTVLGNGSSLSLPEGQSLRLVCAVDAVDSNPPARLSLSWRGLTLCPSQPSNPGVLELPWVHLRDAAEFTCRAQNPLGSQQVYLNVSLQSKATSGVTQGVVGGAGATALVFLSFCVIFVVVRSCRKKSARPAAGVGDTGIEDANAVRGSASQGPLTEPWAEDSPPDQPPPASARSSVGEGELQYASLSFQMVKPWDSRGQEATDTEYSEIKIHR
T12 sequence (Q9Y336 other isoform, or with tags, fused parts or gaps mutant): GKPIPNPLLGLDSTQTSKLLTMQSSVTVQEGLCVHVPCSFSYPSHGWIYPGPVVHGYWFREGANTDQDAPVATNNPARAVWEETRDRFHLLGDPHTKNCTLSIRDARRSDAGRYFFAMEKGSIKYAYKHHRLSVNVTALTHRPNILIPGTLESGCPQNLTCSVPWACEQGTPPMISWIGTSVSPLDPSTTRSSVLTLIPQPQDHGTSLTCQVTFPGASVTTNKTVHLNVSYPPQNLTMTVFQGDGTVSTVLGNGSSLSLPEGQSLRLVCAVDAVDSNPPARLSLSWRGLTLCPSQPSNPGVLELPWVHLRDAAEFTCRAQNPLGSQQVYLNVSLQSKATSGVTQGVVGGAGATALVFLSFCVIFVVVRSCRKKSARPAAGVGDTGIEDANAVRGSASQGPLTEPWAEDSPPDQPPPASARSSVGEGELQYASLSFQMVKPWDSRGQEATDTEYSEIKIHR
T1 sequence (P20138 18-364 R69G): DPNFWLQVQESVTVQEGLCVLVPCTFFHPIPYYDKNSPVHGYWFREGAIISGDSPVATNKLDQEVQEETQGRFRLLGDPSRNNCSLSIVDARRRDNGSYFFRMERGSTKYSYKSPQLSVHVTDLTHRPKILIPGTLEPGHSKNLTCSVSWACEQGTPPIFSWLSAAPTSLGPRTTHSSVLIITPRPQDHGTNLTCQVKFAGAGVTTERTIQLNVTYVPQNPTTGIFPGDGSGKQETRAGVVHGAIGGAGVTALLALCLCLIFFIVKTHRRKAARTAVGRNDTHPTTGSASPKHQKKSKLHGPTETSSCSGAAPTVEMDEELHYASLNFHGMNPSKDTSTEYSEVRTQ

B1: mAb3 (antibody, human IgG1, V domains shown)
VH: EVQLLETGPGLVKPSQSLSLTCTVTGYSITGGFAWNWIRQFPGNTLEWMGYIGYGGSTSYNPSLNSRISITRDTSKNHFFLQFNSVTTEDSATYYCARGDYLFAYWGQGTLVTVSA
VL: DILMTQSPASLSASVGETVSITCRASGNIHNYLAWYLQRQGKSPQLLVYNAKTLADGVPSRFSGTGSGTQFSLKINSLQPEDFGSYYCQHFWSTPRTFGGGTKLEIK
In the case of B1, the binding result with Human Siglec-3, with Human Siglec-5, with Human Siglec-6, with Human Siglec-8, in the test with Human Siglec-10 and in the test with Human Siglec-11 was “no binding” throughout. Further, the binding result (in the test with Human Siglec-12; in the test with Human Siglec-9 mutant M2; in the test with Human Siglec-9 mutant M6; with Human Siglec-9 mutant M7; with Human Siglec-9 mutant M8; in test [1]) was “binds” in each case. Besides, in test [2], the binding result is given as “binds”.
